Positions of bridges follow the written chain, without caps; N, C: chain ends. Non-standard residues stand in square brackets, D forms with d. No end group written: not given here. tri‑branched mPEG‑MAL 50 kDa = tri-branched maleimide-activated monomethoxy PEG, 50 kDa; Aib = CC(C)(N)C(=O)O
Columns and labels:
[1] = molecular target: human glucagon receptor (GCGR) (human, UniProt P47871 26-477); experiment: cell-based or functional assay
human GLP-1 receptor = human GLP-1 receptor (human, UniProt P43220 24-463); experiment: cell-based or functional assay

human glucagon receptor (GCGR), sequence (P47871 26-477): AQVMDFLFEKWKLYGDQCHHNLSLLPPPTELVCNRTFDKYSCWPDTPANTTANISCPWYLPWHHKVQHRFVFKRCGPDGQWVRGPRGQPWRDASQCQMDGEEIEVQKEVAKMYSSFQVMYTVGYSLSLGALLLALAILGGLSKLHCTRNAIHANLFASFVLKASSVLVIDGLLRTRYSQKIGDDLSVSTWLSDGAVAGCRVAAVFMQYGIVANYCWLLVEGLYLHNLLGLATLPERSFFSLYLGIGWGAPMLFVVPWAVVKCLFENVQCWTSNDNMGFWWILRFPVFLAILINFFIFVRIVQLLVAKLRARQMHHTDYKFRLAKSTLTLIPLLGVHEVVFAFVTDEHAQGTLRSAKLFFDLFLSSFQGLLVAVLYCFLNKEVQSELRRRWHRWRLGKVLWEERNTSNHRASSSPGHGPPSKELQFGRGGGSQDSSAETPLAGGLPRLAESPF

EC50 of glucagon receptor (GCGR) (nM); cAMP in CHO-K1 cells [1] [nM]	EC50 of GLP-1 receptor (nM); cAMP (luciferase reporter) in HEK293/CRE-Luc cells (human GLP-1 receptor) [nM]	Binder
47	2.12	H[Aib]QGTFTSDYSKYLDEQAAKEFVQWLMNTC(tri‑branched mPEG‑MAL 50 kDa) (lactam 16-20) [conjugate of Example 2 (polypeptide of SEQ ID NO. 2 bound to tri-branched mPEG-MAL, MW 50 kDa)]
38.6	0.13	H[Aib]QGTFTSDYSKYLDEQAAKEFVQWLMNTC (lactam 16-20) [polypeptide of Example 1 (polypeptide into which cysteine was introduced, SEQ ID NO. 2)]
